Series [1] deals with T1, thymidylate synthase (TS) (zebrafish, UniProt A0ACM8Q3Q5 1-318). Put plainly: EMSA; 100 ng TS; 37 C, 10 min; 100 ng TS (200 ng in Fig. 5B legend), 1 ng 32P TS mRNA; non-denaturing 5% acrylamide gel (60:1); binding buffer, salt and pH not given (cited ref. 16). To be noted: protein: recombinant, tags: His-tag removed by thrombin, chain copies: 2, hairpin (MFold).
Series [2] has as its target T1, thymidylate synthase (TS). Put plainly: competition EMSA; vs 32P full-length TS mRNA; 37 C, 10 min; 100 ng TS (200 ng in Fig. 5B legend), 1 ng 32P TS mRNA; non-denaturing 5% acrylamide gel (60:1); binding buffer, salt and pH not given (cited ref. 16). To be noted: protein: recombinant; tags: His-tag removed by thrombin; chain copies: 2; hairpin (MFold), 6 nt loop. For orientation: A gel shift assay detects complexes by their altered migration in electrophoresis.

The IC50 is the concentration that inhibits the measured activity by half.

T1 sequence (A0ACM8Q3Q5 entry or part of it): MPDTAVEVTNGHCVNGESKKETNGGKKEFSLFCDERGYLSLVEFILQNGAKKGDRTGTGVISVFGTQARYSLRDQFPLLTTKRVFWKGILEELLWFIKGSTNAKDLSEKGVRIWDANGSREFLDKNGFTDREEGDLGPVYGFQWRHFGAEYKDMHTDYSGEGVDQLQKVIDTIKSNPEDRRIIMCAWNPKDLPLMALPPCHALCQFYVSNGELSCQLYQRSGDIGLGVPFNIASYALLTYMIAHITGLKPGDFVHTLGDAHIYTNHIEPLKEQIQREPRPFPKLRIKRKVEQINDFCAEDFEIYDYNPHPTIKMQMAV

Regarding CUCUUGUUGUGCAGGAU (structured_RNA) [Δ20-TS RNA], in series [1], the binding result is given as “no binding”.
For CUCUUCAUGUGCUGCAGGAU (structured_RNA) [Δ20-18-TS RNA], the binding result in series [1] (5 nt loop) is recorded as “no binding”.
On to CUCUUGUUGUGCUGCAGGAU (structured_RNA) [TS:N20 (TS13-32)], for which the IC50 in series [2] is 0.62 ± 0.2 nM.
On to CUCUUGUUGUAAAGCAGGAU (structured_RNA) [Δ20-23-TS RNA (Δ20-22 in Table 1)], for which the binding result in series [1] (4 nt loop) is on record as “no binding”.

The record behind these values is article PMC2868900, “Interaction between Thymidylate Synthase and Its Cognate mRNA in Zebrafish Embryos”.
